This data set in a line: soluble on expression in E. coli; label from the status in PepcDB or PDB records.
With “MAHHHHHHMQTGPFAAVTRVPDHVRNMILNEIASENIWLFDRGRCEAVTVGDMRSSSFSIPMAESPPAVGCELDNNEHLLLYDLMRVRNGQVMFENDHFSRIRQNCILTAPTACDAANVSEDEDLGKLSTYIEGVRSTTRDFIKCNPWENGDVNLKFVTWVLPSQLSDVSTAERRSELLRTLSYAVYYVTSFFPPEDWYEEGTRYAMLYDAQRHTPNAKILQVPLRERAKALQQTTNAFEVLLVSDNRRHYLVPEGSRSNYLIVSGDESLLCSLEEDILVGITLRVARRAAACARLPPLRHRKLVLGDICLAKSIAMLGTSPGVLPIKEIQVFYDEESKQNFLLAMEDYMQDKDEEIQRAVINVRGRILNDDGLLRLESPSCDTLKRLRAAYEAEALL”, the “soluble on expression in E. coli” value is reported as “not soluble”.

Regarding “MQDIPQETLSETTKAEQSAKVDLWEFDLTAIGGERFFFCNEPNEKGEPLTWQGRQYEPYPIQVQDFEMNGKGASPRPNLVVANLFGLVTGMAEDLQSLVGASVVRHQVYSKFLDAVNFSNGNPDADPEQEAVARYNVEQLSELDSSTATIILASPAETDGSVVPGRTMLADSCPWDYRDENCGYDGPPVADEFDKPTSDPKKDKCSHCMKGCEMRNNLVNAGFFASINKLS”, the “soluble on expression in E. coli” value is given as “not soluble”.

Consider “MVEINNQRKAFLDMLAWSEGTDNGRQKTRNHGYDVIVGGELFTDYSDHPRKLVTLNPKLKSTGAGRYQLLSRWWDAYRKQLGLKDFSPKSQDAVALQQIKERGALPMIDRGDIRQAIDRCSNIWASLPGAGYGQFEHKADSLIAKFKEAGGTVREIDV”, for which the “soluble on expression in E. coli” value was “soluble”.

For “WLRPAFAGKTRLDALDEAAFEQAVKSLLSWTQHALIDRHVPAHIIVPSGMGRHIDYGLADDGTPQPPVLSVKLQELFGLPDTPRIAKNRIPLTLHLLSPGGRPLQVTQDLKSFWTNTYPEVKKEMKGRYPKHPWPDDPWTATATHRTKSPGK”, the “soluble on expression in E. coli” value was “not soluble”.

“MGHHHHHHSHMKAEGKKPISKIPKKGFVEVTELTDVTYTSNLVRLRPGHMNVVLILSNSTKTSLLQKFALEVYTFTGSSCLHFSFLSLDKHREWLEYLLEFAQDAAPIPNQYDKHFMERDYTGYVLALNGHKKYFCLFKPQKTVEEEEAIGSCSDVDSSLYLGESRGKPSCGLGSRPIKGKLSKLSLWMERLLEGSLQRFYIPSWPELD”: the “soluble on expression in E. coli” value is listed as “not soluble”.

On to “MEVHKAITAHSRKQNESVKACLQLDAQREAAIEAAVSLASNGKEFSVDVINVVTKQINDLAKNGVTLQRKYVTEEMVMEYVSRLKKKEGR”, for which the “soluble on expression in E. coli” value is “not soluble”.

Take “MFFIGIFGIEEKAKVIRQIDVEICPFCTRKGSYTLFKVYNYLHFFFIPVLRWNTRYFIQTSCCSKVYLITNPQLAHDLEYGKDVPITLADVELFRNLQGMYQEGIDSDFCPNCGNRVSKNFLYCPYCGQKLELEHHHHHH”: the “soluble on expression in E. coli” value is listed as “not soluble”.

For the sequence “MQPDLHCRTLAAHTLKHFRALSPLTHCMTNDVVQTFTANTLLALGASPAMVIDPVEARPFAAIANALLINVGTLTASRADAMRAAVESAYDAKTPWTLDPVAVGALEFRRRFCLDLLSLRPAAIRGNASEILALSGMALGGRGVDTTEAALAALPAAQALARQIDCIVVVTGEIDYVTNGQRTLSIPGGDPLMTRIVGTGCALSAVVAASCALPGAALDNVASACCWMKLAGQAAAERSEGPGSFIPAFLDALYHLDVEAANATN”, the “soluble on expression in E. coli” value is “not soluble”.

Consider “ATCDDGRTTANAACCILFPILDDIQENLFDGAQCGEEVHESLRLTFHDAIGFSPTLGGGGADGSIIAFDTIETNFPANAGIDEIVSAQKPFVAKHNISAGDFIQFAGAVGVSNCPGGVRIPFFLGRPDAVAASPDHLVPEPQDSVDSILARMGDAGFSPVEVVWLLASHSIAAADKVDPSIPGTPFDSTPGVFDSQFFIETQLKGRLFPGTADNKGEAQSPLQGEIRLQSDHLLARDPQTACEWQSMVNNQPKIQNRFAATMSKMALLGQDKTKLIDCSDVIPTPPALVGAAHLPAGFSLSDVEQACAATPFPALTADPGPVTSVPPVPGS”, for which the “soluble on expression in E. coli” value is “soluble”.

With “MGSDKIHHHHHHMNTQPVIGISGCLTGSAVRFDGGHKRMGFVMDELAQWVAFKPVCPEMAIGLPVPRPALRLVQTPVGEIRMRFSHAPHEDVTEKMADFASAHLATLGGLSGFIVCAKSPSCGMERVRLYDEKGNRGRKEGVGLFTGALMARYPWLPVEEDGRLHDPLLRENFVERVFALHELNALRARGLTRHGLLAFHSRYKLQLLAHHQAGYREIGPFVASLHEWEDLEAFFEVYREKLMAILKQPASRKNHTNVLMHIQGYFRDQLNSRQRGELREVILNYRAGLLPILAPLTLLKHYLAEYPDRYLQAQNYFDPYPQDLALRLTVN”, the “soluble on expression in E. coli” value is on record as “not soluble”.

“MAHHHHHHMTTLEKRIEEASGLIYRARAEETPDGNPLVAARNYIAAMEIITNICKDVSPESDNDKDRFFLFQVRQRMEVYQKRVQLLLSVAAEMGLDDIPEHVGNTVLDSPPHAGDRTGAADFENPAVPSTAPTSVPPPACADGFGENVPPLEYFFSQQPQAPTRPHPEETESVEALLGQFSFDEVKKE”: the “soluble on expression in E. coli” value is “soluble”.

In the case of “MSLHLSNVILHQLCKNDQDELVVKLRPASLENDASTENLVAELHRVFHSKAGKGFGSFQSDSEFQFWLQEMRKGERDFYDFSQISANRLKEELIKYPFADEGILVFAEYQSLATDYLFIGILPMNQSLKVTEGLDISATDYLDITKMDIAARIDLSSYETDKESNRYLQYIKGRVGRKVADFFLDFLQADIGLDTKQQNLVLMQAVDDFCADSKLEKQEVNEYKKQVYNYCNEQIKSGEEVQISELSGELPPSQDGTSFMDFTKEQGYELEESFPGDRSTVRKLTKYVGAGGGLNISFDSLLLGERIFYDPETDTLTIKGTPPNLKDQLSRNLEHHHHHH”, the “soluble on expression in E. coli” value is recorded as “soluble”.

Regarding “MGSDKIHHHHHHMSTIEERIKEIEDEIKRTQYNKATEHHIGLLKAKIARLQMEARAHKGGGHYGFSIPKSGDATVALVGFPNVGKSSLLNVLTNSESEVGSYAFTTLKAIPGVMEYKGAEIQILDLPGIIENASYGAGRGREILSTVRSADLIVIVTDVETGGLDKIVKELYNSGIVVNRRRKNIEIKKTTSGGIRVHKPKNVDIDSEYIRQLMKEFKLVNADVYIREQVNEDDIIEAVQKNYVYIPSIVAVNKIDMNGAFDTSPLTRFGEVFKVSAKNRIGIDELREGIYRSLKLLRVYLRNKAGVVDFDKPLILTDGSTVRDVCRKINRSLIDSFRYAIISGKNRPIGEQRVGIDYPLLDEDIVTIISRN”, the “soluble on expression in E. coli” value is on record as “not soluble”.

On to “MKIVEALKANGVEVIITEKADVLIKNFENAHISYALSADEKTGVIFFGGFEEKMKAGLAEHHVAILKEEDVKENILLAYEHARRKSDVLFASSSASKTADIEGKTVFGMHGPRKFTVVLVVRK”, for which the “soluble on expression in E. coli” value was “not soluble”.

Turning to “MDRMYEQNQMPHNNEAEQSVLGSIIIDPELINTTQEVLLPESFYRGAHQHIFRAMMHLNEDNKEIDVVTLMDQLSTEGTLNEAGGPQYLAELSTNVPTTRNVQYYTDIVSKHALKRRLIQTADSIANDGYNDELELDAILSDAERRILELSSSRESDGFKDIRDVLGQVYETAEELDQNSGQTPGIPTGYRDLDQMTAGFNRNDLIILAARPSVGKTAFALNIAQKVATHEDMYTVGIFSLEMGADQLATRMICSSGNVDSNRLRTGTMTEEDWSRFTIAVGKLSRTKIFIDDTPGIRINDLRSKCRRLKQEHGLDMIVIDYLQLIQGSGSRASDNRQQEVSEISRTLKALARELECPVIALSQLSRGVEQRQDKRPMMSDIRESGSIEQDADIVAFLYRDDYYNRGGDEDDDDDGGFEPQTNDENGEIEIIIAKQRNGPTGTVKLHFMKQYNKFTDIDYAHADMM”, the “soluble on expression in E. coli” value is recorded as “not soluble”.

Regarding “INYRCPKRVITLINNIRKGDDQNVQVPKEDAIDGFVRLFIVDSNTTDKLELENKIRFQMAMLTHDEDWNIAEEVKTLTLEHDMAASRGGFDEFLLPLSSVSSLRDAALNGTSKNINFITSTLLPFIDAVEKDDSFEVARIIKSGSLLISDSNQSFLLNPIGTLKDIDSNVVEFKKILVNGKVTLHNVLSTIQKFELLSLPDELLVYLSDIEQGEPNEPESDTKLLSDVDKAWGLALNSSIGHVKNYAKYVNETLGYATHQGVKGLEYKRVMAVLDDKFKGFLFDYEKLFGAKDLTKKDIENEDLGKDSALSRTRRLFYVICSRAEQSLAVVAYSNDPIAIEKTAIESEWFSKDEIVLI”, the “soluble on expression in E. coli” value is “not soluble”.

Consider “MSATETITTNARVLGADPLVKDGFGEEDMLTLVLPYIKTAREGVLRLGELLETYGTYESNGIAFADTEEIWWLKTIGGHNWIARRVPDDAYVTNPNQLGIDHYEFENPDDYLASPDIRDFINKHHLDLTYSNEHFNPRYAFGSQRDKDHHYNTPRARAM”, for which the “soluble on expression in E. coli” value is on record as “soluble”.

Take “EVVVRRLSDPVELEEAVEVHARAWGSRDYREVVAPHILRALVDNGGLVLGAFVGGRMVGASYGWFVGCGEGRYFYSHATGVEEGYKYRGVGFALKARQREEVLREGVSLAKWTFDPLQSLNTRFNLAKLGAVYRVYKVNYYGEMTDEINRGLGSDRVVAEWWL”: the “soluble on expression in E. coli” value is listed as “not soluble”.

On to “GPGSMKAQPKQIGCYLVTEASREESFVVLEGHEVDNPNRHVRAKALLEDRAAPENISVRIGIEENLLGRSVAYPRARCRALEQEEGKSVRASNDSLAELWRARPL”, for which the “soluble on expression in E. coli” value was “soluble”.

Regarding “MGSDKIHHHHHHMADYTKMWSELGLDLKSHDALLSILGSAYGDIFLSQKDRPEGMKYFDFVMSEVHGLRIQELMEAKARGRIVVGSYCVFVPEELILAVDGVSVGLCAGAEFNFEGAEEVLPRNTCALIKSAFGFKFGKVCPYLEACDVVVGENTCDGKKKAYEILGPLVTDLYVIDLHQTKSDMGRALLKEEYRRFAAKLESVSGKKITPDSLKKGIEVVNAKRMAVKRLAAIRAADPAPISGLDALLVNQVFFYDDPVRFTHSVNQLCDELEERVKQGIGVFAQGTTRVIVSGCPMAVPNWKLPMLIESSNAVIVGEESCVGERGTRWLTEFRGETEEDLLDALTERYFSIDCAVFTPNPSRVDYVKEMTKKLNAQGVIHYSLQFCQPHMVESGPVEKELEKSGIPTLRLETDYSQEDAGQLKTRIEAFVERLENK”, the “soluble on expression in E. coli” value is given as “not soluble”.

For “MEVRFTRGKSAILERSLTRPKTEVSVSAFALLFSEMVQYCQSRVYSVSELQARLADMGQGVGASLLDVLVMREKNGKRETKVLNILLFIKVNVWKALFGKEADKLEQANDDDKTYYIIEKEPLINAYISVPKENSTLNCAAFTGGIVEAILTHSGFPAKVTVHWHKGTTLMIKFDESVIARDKALDGR”, the “soluble on expression in E. coli” value is listed as “soluble”.

For “MANIEIRQESPSAFYIKVHETDNVAIIVNDHGLKAGTRFPDGLELTEHIPQGHKVALTDIPAHGEIIRYGEVIGYAVRDIPRGSWIDESLVELPKAPPLNTLPLATKVPEPLPPLEGYTFEGYRNADGSVGTKNLLGITTSVHCVAGVVDYVVKVIERDLLPKYPNVDGVVGLNHLYGCGVAINAPAAVVPIRTIHNIALNPNFGGEVMVIGLGCEKLQPERLLEGTEDVPAIAVESASIVRLQDEQHVGFKSMVDDILRVAERHLTKLNQRQRETCPASELVVGMQCGGSDAFSGVTANPAVGYASDLLVRCGATVMFSEVTEVRDAIHLLTPRAINEAVGKRLLDEMAWYDNYLDMGKTDRSANPSPGNKKGGLANVVEKALGSIAKSGKSAIVEVLSPGQRPTKRGLIYAATPASDFVCGTQQVASGITVQVFTTGRGTPYGLMAVPVIKMATRTELANRWYDLMDINAGTIATGEETIEDVGWKLFHFILDVASGRKKTFSDQWGLHNQLAVFNPAPVT”, the “soluble on expression in E. coli” value was “not soluble”.

These data come from the DeepSol protein solubility set.
